{"source": "patent US20030077706A1", "target": "CRF2-4/zcytor11 heterodimeric receptor (on BaF3/CRF2-4/zcytor11 cells) (human) (UniProt Q08334)", "sequence (Q08334 20-325 limits assumed, chain 1 of 2)": "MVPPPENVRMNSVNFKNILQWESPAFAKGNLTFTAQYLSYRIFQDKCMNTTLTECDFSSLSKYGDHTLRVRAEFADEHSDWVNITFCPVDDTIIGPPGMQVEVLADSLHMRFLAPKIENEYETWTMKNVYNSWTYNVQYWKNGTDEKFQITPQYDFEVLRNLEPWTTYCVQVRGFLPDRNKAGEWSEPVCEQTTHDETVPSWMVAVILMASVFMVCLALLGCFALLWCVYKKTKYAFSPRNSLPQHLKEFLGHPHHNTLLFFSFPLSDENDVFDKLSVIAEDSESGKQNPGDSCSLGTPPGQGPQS", "sequence (chain, as listed by the source limits assumed, chain 2 of 2)": "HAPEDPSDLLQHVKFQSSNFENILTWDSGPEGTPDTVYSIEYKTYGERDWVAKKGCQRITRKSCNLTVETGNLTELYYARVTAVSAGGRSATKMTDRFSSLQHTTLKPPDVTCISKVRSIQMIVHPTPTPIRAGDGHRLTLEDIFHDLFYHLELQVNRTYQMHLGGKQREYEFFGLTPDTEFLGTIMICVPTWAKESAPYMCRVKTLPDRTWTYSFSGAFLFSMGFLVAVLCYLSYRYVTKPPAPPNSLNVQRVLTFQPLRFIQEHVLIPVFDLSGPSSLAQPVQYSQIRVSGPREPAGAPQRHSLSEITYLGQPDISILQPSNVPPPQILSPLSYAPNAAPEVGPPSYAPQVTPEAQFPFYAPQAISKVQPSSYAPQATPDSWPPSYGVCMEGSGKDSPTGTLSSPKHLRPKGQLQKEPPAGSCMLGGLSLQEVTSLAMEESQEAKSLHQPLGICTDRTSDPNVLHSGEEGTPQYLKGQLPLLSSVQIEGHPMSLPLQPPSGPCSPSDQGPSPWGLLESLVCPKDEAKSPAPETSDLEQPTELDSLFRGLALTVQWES", "experiment": "cell-based or functional assay", "data": [{"substance": "purified human IL-TIF-CEE (IL-TIF with C-terminal Glu-Glu tag) (from UniProt Q9GZX6 34-179) (ligand)", "values": [{"measurement": "proliferation of BaF3/CRF2-4/zcytor11 cells (Alamar Blue), IL-TIF-CEE at 0.06 ng/ml (fold induction)", "result": 2}, {"measurement": "proliferation of BaF3/CRF2-4/zcytor11 cells (Alamar Blue), IL-TIF-CEE at 50 ng/ml (fold over background)", "result": 15}]}]}
